Assays:
Assay in all cases: flow cytometry on peptide-pulsed T2 cells, scFv 100 nM
1F = target: T1, 1F
T1 construct: also called HLA-A2 / point-mutant NY-ESO peptide 1F complex on T2 cells

2M = target: T2, 2M
T2 construct: also called HLA-A2 / point-mutant NY-ESO peptide 2M complex on T2 cells

3A = target: T3, 3A
T3 construct: also called HLA-A2 / point-mutant NY-ESO peptide 3A complex on T2 cells

4A = target: T4, 4A
T4 construct: also called HLA-A2 / point-mutant NY-ESO peptide 4A complex on T2 cells

5A = target: T5, 5A
T5 construct: also called HLA-A2 / point-mutant NY-ESO peptide 5A complex on T2 cells

6L = target: T6, 6L
T6 construct: also called HLA-A2 / point-mutant NY-ESO peptide 6L complex on T2 cells

8A = target: T7, 8A
T7 construct: also called HLA-A2 / point-mutant NY-ESO peptide 8A complex on T2 cells

9A = target: T8, 9A
T8 construct: also called HLA-A2 / point-mutant NY-ESO peptide 9A complex on T2 cells

7F = target: T9, 7F
T9 construct: also called HLA-A2 / point-mutant NY-ESO peptide 7F complex on T2 cells

B1: NYA-2048 (scFv)
scFv: GQVQLVESGGGVVQPGRSLRLSCAASGFSIRSYDMHWVRQAPGKGLEWVATISYDGSQKYYADSVKGRFTISRDNSKNTLYLQMSSLRAEDTAVYHCARGSSGHYEAFDIWGQGTLVTVSSGGGGSGGGGSGGGGSQSVLTQPPSASGTPGQRVTISCSGSSSNIGNWYVSWYQQLPGTAPKLLIYDNNKRPSGVPDRFSGSKSGTSASLAISGLQSEDEADYYCGTWDSSLSAPWVFGGGTKLTVLGAAAGAGGDYKDDDDKGAAAHHHHHH
notes: also called NYA-2048 tag adduct
With B1 the “standardized gMFI” value (1F) was 0.51, the “standardized gMFI” value (2M) was 5.36 and the “standardized gMFI” value (3A) was 4.2. The “standardized gMFI” value (4A) was 0.63, the “standardized gMFI” value (5A) was 0.67 and the “standardized gMFI” value (6L) was 6.14. The “standardized gMFI” value (8A) was 4.11 and the “standardized gMFI” value (9A) was 7.75.

B2: NYA-2044 (scFv)
scFv: GEVQLVESGGGLVQPGGSLRLSCAASGFSIRSYDIHWVRLAPGKGLEWVATISYDGSQKYYADSVKGRFTISRDESKNTLYLQMNSLRAEDTAVYHCARGSSGHYEAFDIWGQGTLVTVSSGGGGSGGGGSGGGGSQSVLTQPPSVSAAPGQKVTISCSGSSSNIGNWYVSWYQQLPGTAPKLLIYDNNKRPSGIPDRFSGSKSGTSATLGITGLQTGDEADYYCGTWDSSLSAPWVFGGGTKVTVLGAAAGAGGDYKDDDDKGAAAHHHHHH
notes: also called NYA-2044 tag adduct
For B2, the “standardized gMFI” value (1F) was 0.68, the “standardized gMFI” value (2M) was 13.5 and the “standardized gMFI” value (3A) was 10.9. The “standardized gMFI” value (4A) was 3.21, the “standardized gMFI” value (6L) was 13.4 and the “standardized gMFI” value (7F) was 3.62. The “standardized gMFI” value (8A) was 10 and the “standardized gMFI” value (9A) was 15.6.

B3: NYA-2045 (scFv)
scFv: GEVQLVESGGGLVQPGGSLRLSCAASGFSIRSYDIHWVRLAPGKGLEWVATISYDGSQKYYADSVKGRFTISRDESKNTLYLQMNSLRAEDTAVYHCARGSSGHYEAFDIWGQGTLVTVSSGGGGSGGGGSGGGGSQSVLTQPPSASGTPGQRVTISCSGSSSNIGNWYVSWYQQLPGTAPKLLIYDNNKRPSGVPDRFSGSKSGTSASLAISGLQSEDEADYYCGTWDSSLSAPWVFGGGTKLTVLGAAAGAGGDYKDDDDKGAAAHHHHHH
notes: also called NYA-2045 tag adduct
In the case of B3, the “standardized gMFI” value (1F) is reported as 0.53, the “standardized gMFI” value (2M) is reported as 8.8 and the “standardized gMFI” value (3A) is reported as 7.46. The “standardized gMFI” value (6L) was 8.8, the “standardized gMFI” value (7F) was 1.99 and the “standardized gMFI” value (8A) was 7.35. For the same binder, the “standardized gMFI” value (9A) was 9.98.

B4: NYA-2047 (scFv)
scFv: GQVQLVESGGGVVQPGRSLRLSCAASGFSIRSYDMHWVRQAPGKGLEWVATISYDGSQKYYADSVKGRFTISRDNSKNTLYLQMSSLRAEDTAVYHCARGSSGHYEAFDIWGQGTLVTVSSGGGGSGGGGSGGGGSQSVLTQPPSVSAAPGQKVTISCSGSSSNIGNWYVSWYQQLPGTAPKLLIYDNNKRPSGIPDRFSGSKSGTSATLGITGLQTGDEADYYCGTWDSSLSAPWVFGGGTKVTVLGAAAGAGGDYKDDDDKGAAAHHHHHH
B4 was tested, and the “standardized gMFI” value (1F) was 0.48, the “standardized gMFI” value (2M) was 7.34 and the “standardized gMFI” value (3A) was 6.09. For the same binder, the “standardized gMFI” value (4A) was 0.86, the “standardized gMFI” value (6L) was 7.07 and the “standardized gMFI” value (8A) was 6.61. The “standardized gMFI” value (9A) was 9.54.

B5: NYC-0004 (scFv, not shown: small tags and cut ends)
scFv: EVQLLESGGGLVQPGGSLRLSCAASGFTFSTYQMSWVRQAPGKGLEWVSGIVSSGGSTAYADSVKGRFTISRDNSKNTLYLQMNSLRAEDTAVYYCAGELLPYYGMDVWGQGTTVTVSSGGGGSGGGGSGGGGSQSELTQPRSVSGSPGQSVTISCTGTERDVGGYNYVSWYQQHPGKAPKLIIHDVIERSSGVPDRFSGSKSGNTASLTISGLQAEDEADYYCWSFAGGYYVFGTGTDVTVL
notes: also called T1 scFv; NYC-0004 tag adduct
For B5, the “standardized gMFI” value (1F) was 3.56, the “standardized gMFI” value (2M) was 5.66 and the “standardized gMFI” value (3A) was 4.75. The “standardized gMFI” value (5A) was 0.65, the “standardized gMFI” value (6L) was 3.78 and the “standardized gMFI” value (7F) was 5.07. For the same binder, the “standardized gMFI” value (8A) was 3.69 and the “standardized gMFI” value (9A) was 7.99.

B6: NYA-1143 (scFv)
scFv: GEVQLVESGGGVVQPGRSLTPSCSASGFSIRSYDIHWVRLAPGKGLEWVATISYDGSQKYFADSVKGRFTIFRDESENMVYLQMSGLRVEDTAVYHCARGSSGHYEAFDIWGQGTMVTVSSGGGGSGGGGSGGGGSQSVLTQPPSVSAAPGQKVTISCSGSSSNIGNWYVSWYQQLPGTAPKLLIYDNNKRPSGIPDRFSGSKSGTSATLGITGLQTGDEADYYCGTWDSSLSAPWVFGGGTKVTVLGAAAGAGGDYKDDDDKGAAAHHHHHH
For B6, the “standardized gMFI” value (2M) was 11.9, the “standardized gMFI” value (3A) was 10.2 and the “standardized gMFI” value (5A) was 3.15. For the same binder, the “standardized gMFI” value (6L) was 12.9, the “standardized gMFI” value (8A) was 8.74 and the “standardized gMFI” value (9A) was 15.1.

B7: NYA-2023 (scFv)
scFv: GEVQLVESGGGVVQPGRSLTPSCSASGFSIRSYDIHWVRQAPGKGLEWVATISYDGSQKYFADSVKGRFTIFRDESENMVYLQMSGLRVEDTAVYHCARGSSGHYEAFDIWGQGTMVTVSSGGGGSGGGGSGGGGSQSVLTQPPSVSAAPGQKVTISCSGSSSNIGNWYVSWYQQLPGTAPKLLIYDNNKRPSGIPDRFSGSKSGTSATLGITGLQTGDEADYYCGTWDSSLSAPWVFGGGTKVTVLGAAAGAGGDYKDDDDKGAAAHHHHHH
With B7 the “standardized gMFI” value (1F) was 0.72, the “standardized gMFI” value (2M) was 6.74 and the “standardized gMFI” value (3A) was 4.92. The “standardized gMFI” value (4A) was 2.48, the “standardized gMFI” value (6L) was 7.51 and the “standardized gMFI” value (7F) was 4.72. The “standardized gMFI” value (8A) was 5.4 and the “standardized gMFI” value (9A) was 10.8.

B8: NYA-2035 (scFv)
scFv: GEVQLVESGGGVVQPGRSLTPSCSASGFSIRSYDIHWVRLAPGKGLEWVATISYDGSQKYFADSVKGRFTIFRDESENMVYLQMSGLRVEDTAVYHCARGSSGHYEAFDIWGQGTMVTVSSGGGGSGGGGSGGGGSQSVLTQPPSVSAAPGQKVTISCSGSSSNIGNWKVSWYQQLPGTAPKLLIYDNNKRPSGIPDRFSGSKSGTSATLGITGLQTGDEADYYCGTWDSSLSAPWVFGGGTKVTVLGAAAGAGGDYKDDDDKGAAAHHHHHH
With B8 the “standardized gMFI” value (1F) was 0.6, the “standardized gMFI” value (2M) was 8.8 and the “standardized gMFI” value (3A) was 5.81. The “standardized gMFI” value (6L) was 8.95, the “standardized gMFI” value (7F) was 5.83 and the “standardized gMFI” value (8A) was 6.41. For the same binder, the “standardized gMFI” value (9A) was 11.5.

B9: NYA-1163 (scFv)
scFv: GEVQLVESGGGVVQPGRSLTPSCSASGFSIRSYDIHWVRLAPGKGLEWVATISYDGSQKYFADSVKGRFTIFRDESENMVYLQMSGLRVEDTAVYHCARGSSGHYEAFDIWGQGTMVTVSSGGGGSGGGGSGGGGSQSVLTQPPSVSAAPGQKVTISCSGSSSNIGNNYVSWYQQLPGTAPKLLIYDNNKRPSGIPDRFSGSKSGTSATLGITGLQTGDEADYYCGTWDSSLSAPWVFGGGTKVTVLGAAAGAGGDYKDDDDKGAAAHHHHHH
In the case of B9, the “standardized gMFI” value (1F) is reported as 0.53, the “standardized gMFI” value (4A) is reported as 0.57 and the “standardized gMFI” value (5A) is reported as 0.62. The “standardized gMFI” value (8A) was 6 and the “standardized gMFI” value (9A) was 4.01.

B10: NYA-2143 (scFv)
scFv: GEVQLVESGGGVVQPGRSLTPSCSASGFSIRSYDIHWVRLAPGKGLEWVATISYDGSQKYFADSVKGRFTIFRDESENMVYLQMSGLRVEDTAVYHCARGSSGHYEAFDIWGQGTMVTVSSGGGGSGGGGSGGGGSQSVLTQPPSVSAAPGQKVTISCSGSSSNIGNWYVSWYQRLPGTAPKLLIYDNNKRPSGIPDRFSGSKSGTSATLGITGLQTGDEADYYCGTWDSSLSAPWVFGGGTKVTVLGAAAGAGGDYKDDDDKGAAAHHHHHH
For B10, the “standardized gMFI” value (1F) was 2.72, the “standardized gMFI” value (2M) was 13.2 and the “standardized gMFI” value (3A) was 10.3. The “standardized gMFI” value (4A) was 7.19, the “standardized gMFI” value (6L) was 12.9 and the “standardized gMFI” value (8A) was 9.69. For the same binder, the “standardized gMFI” value (9A) was 14.5.

B11: NYA-1154 (scFv)
scFv: GEVQLVESGGGVVQPGRSLTPSCSASGFSIRSYDMHWVRQAPGKGLEWVATISYDGSQKYFADSVKGRFTIFRDESENMVYLQMSGLRVEDTAVYHCARGSSNHYEAFDIWGQGTMVTVSSGGGGSGGGGSGGGGSQSVLTQPPSVSAAPGQKVTISCSGSSSNIGNNYVSWYQRLPGTAPKLLIYDNNKRPSGIPDRFSGSKSGTSATLGITGLQTGDEADYYCGAWDSSLSAPWVFGGGTKVTVLGAAAGAGGDYKDDDDKGAAAHHHHHH
For B11, the “standardized gMFI” value (2M) was 9.49, the “standardized gMFI” value (3A) was 8 and the “standardized gMFI” value (4A) was 6.63. For the same binder, the “standardized gMFI” value (6L) was 9.36, the “standardized gMFI” value (7F) was 6.08 and the “standardized gMFI” value (8A) was 11.9. The “standardized gMFI” value (9A) was 11.2.
